Test results published in the supplement of paper PMC10724198.
± gives the standard deviation of the averaged measurements.

Tested on: Saccharomyces cerevisiae
Assay: protein stability index of tFT-peptide fusion (C-terminal peptide) (PSI (0-1 scale)); higher = more stable (slower turnover)
Conditions: genetic background: wild type; temperature: 30 C
Method: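 Multiplexed protein stability (MPS) profiling in S. cerevisiae. Random 12-aa peptides (tFT-X12 library) are fused to the C-terminus of a sfGFP-mCherry tandem fluorescent timer, after mCherry and a GGGS linker. Cells are FACS-sorted into 8 mCherry/sfGFP bins and deep-sequenced. The protein stability index (PSI) is the read-weighted bin average, scaled from 0 (unstable) to 1 (stable). Only peptides with >10 reads are reported; cells were grown at 30 °C in SC-His with glucose.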
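Also: PSI is a weighted mean of sequencing reads over stability bins, variants kept only with over 10 reads, mCherry proximal and sfGFP distal, peptide attached via GGGS linker.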

Sequence	protein stability index
GRAVCRALVEAR	0.552 ± 0.031
PHVLAALTSYTP	0.68783 ± 0.00064
LRLIPPLTTFDY	0.645 ± 0.098
PPTPPSIPPSPP	0.624 ± 0.064
ATHPPPPPLPPI	0.648 ± 0.068
YSRYAASYSMVV	0.688 ± 0.021
GCGLGEEGSSGV	0.647 ± 0.0091
FLLCISGFSSFL	0.592 ± 0.0077
IAQVDLPDRMKT	0.6937 ± 0.0061
TPSSDFKPTGVR	0.654 ± 0.054
WCLDVGSVSWPF	0.79432 ± 0.0005
FGWVGYGCGVWW	0.741 ± 0.12
QFVLLFRSSGLR	0.7104 ± 0.0017
PLLHPPPRASLL	0.792 ± 0.13
RQDRTFEIQGWE	0.697 ± 0.084
WGGCGSVGRGGA	0.739 ± 0.052
PDYNEIIEYTEG	0.706 ± 0.033
PPTAPTYRQSQP	0.6754 ± 0.001
GIGVGGIHGGIL	0.7547 ± 0.0044
LVSVSVGFFLLL	0.499 ± 0.047
PPPPSPPSPPPP	0.677 ± 0.0094
SFFVTVAGPFQI	0.686 ± 0.012
PPPPPPHPLLST	0.708 ± 0.073
RVPPSRLSLPLS	0.6951 ± 0.0043
CVLLSEVNRTMG	0.646 ± 0.041

Sequence	protein stability index
EREKKNKKGGCQ	0.69 ± 0.018
ITPLVQRPSSLR	0.689 ± 0.088
MGVHKQQMRGQR	0.682 ± 0.036
DDRFNVGNLPQG	0.672 ± 0.046
VGGGGEWCLVRL	0.685 ± 0.013
KEGARGGEASRR	0.669 ± 0.031
GLYSGGLGAGVG	0.658 ± 0.092
TDWGLTPRGRVT	0.777 ± 0.062
FLSPSLLSLSSP	0.681 ± 0.025
DLPRLLLSPSLP	0.67 ± 0.058
CRRRNRLLLFRK	0.697 ± 0.037
NTQSRNKSYTER	0.671 ± 0.0091
HPTLPLLSHPTS	0.798 ± 0.14
RAGPPPPPSITL	0.83 ± 0.085
APHPPPPDPPLP	0.697 ± 0.04
HSAVRMGTRGRG	0.715 ± 0.049
PLPRPPPTATGD	0.687 ± 0.013
SFPRPTSALSLN	0.604 ± 0.075
KKKEKDKKTNKP	0.684 ± 0.057
TVCGWSHLFVYN	0.669 ± 0.026
GFSSSFAGGLLF	0.763 ± 0.036
NKYTKSKKNNKE	0.761 ± 0.14
KKNKKNQKKKNK	0.663 ± 0.0072
EDKVHQSSACHQ	0.707 ± 0.03
ERMVENNVKGRK	0.6811 ± 0.0027

Sequence	protein stability index
HGGCLGGYGGGG	0.661 ± 0.036
IFWGFSFRGWAC	0.656 ± 0.0067
CGGRPPADLRLS	0.69 ± 0.054
GQSGFGYVGSMK	0.669 ± 0.049
GHSLDPSVVSPD	0.674 ± 0.068
IGVSDSGMWMGN	0.694 ± 0.026
KKKKRKNNITKK	0.74 ± 0.15
SKGFVIMRAACF	0.572 ± 0.018
PNPRSPRPSPPS	0.687 ± 0.038
SLTLPAPPLSPC	0.712 ± 0.11
SNRALHATPCPR	0.9 ± 0.038
LPPLPLPPATTP	0.715 ± 0.04
HAPAPPLPTIYP	0.668 ± 0.094
LPPPRPHLSFVP	0.72 ± 0.012
IRHTQVSHIIYA	0.488 ± 0.029
ASTTNLGNPFKA	0.654 ± 0.038
PPPPPLLLPPPA	0.651 ± 0.038
HHTQPLKSIKKN	0.708 ± 0.037
GYRGRDETNATN	0.65 ± 0.025
RACKKGTKRIRI	0.613 ± 0.06
FLSSWFCYSSDL	0.735 ± 0.07
GAAARSGSRKEL	0.631 ± 0.029
WPPPPPPPASPH	0.719 ± 0.071
PPSVPAPPLPDP	0.675 ± 0.038
FPPLSHLPPGLY	0.758 ± 0.075

Sequence	protein stability index
RRINRRGPRMME	0.62 ± 0.015
VGVGGGRWCGRG	0.69 ± 0.059
KKKEKKNIHSKT	0.646 ± 0.029
ETRSDAVVVFTK	0.694 ± 0.021
DRGKGEKGKKAD	0.6797 ± 0.0036
LVCRRYSGDSSS	0.637 ± 0.023
PPHPSPPPPSHS	0.693 ± 0.039
LFLPLPRCHALP	0.7037 ± 0.0066
GLRIRFSNSYVG	0.688 ± 0.057
PYRWQTRPDAVD	0.666 ± 0.014
VRRVVDESKTRD	0.659 ± 0.038
LVRILSRSVVRT	0.697 ± 0.078
AIKGIYPRCYFI	0.697 ± 0.0073
IPEEHKLTWIIP	0.74 ± 0.067
SFLAHSFLPLPP	0.631 ± 0.069
PPPPRPSPPPPS	0.694 ± 0.028
KQLPVLSAEVLS	0.648 ± 0.035
PPPFLPLCFPPL	0.691 ± 0.032
FLSWGSGVFGLL	0.671 ± 0.056
YEGPSTLVYHVR	0.915 ± 0.082
PAPPRYPLSSSS	0.633 ± 0.011
VGCLNCWLPFLG	0.666 ± 0.048
LLLRGSGRSLAL	0.709 ± 0.0082
WWWGGGRGGMGG	0.734 ± 0.019
RSSSLRRGIGQR	0.688 ± 0.071

Sequence	protein stability index
VVGKKQTGEKEK	0.725 ± 0.048
TPVPPLLSRCYP	0.691 ± 0.044
QNNRKEIKRNEI	0.6662 ± 0.0039
FLLFSSFYFCFP	0.497 ± 0.062
TASKHINYKCLA	0.711 ± 0.16
DAFWLRSRRSEG	0.712 ± 0.0039
QTLKKRRNRSRG	0.684 ± 0.041
HSHAGIGPVVTR	0.672 ± 0.0077
KTKKIWKKKSNI	0.713 ± 0.011
SSPDLGPVCVPC	0.647 ± 0.016
VSAPTHVSRVTQ	0.649 ± 0.0088
SPLPPPSPRPSL	0.681 ± 0.039
GSKVGGVGWRSG	0.726 ± 0.0095
SPPPSSPPPFPR	0.639 ± 0.026
GFSLLGPFAFWV	0.688 ± 0.066
EKRKEKKKRGKE	0.797 ± 0.16
ISRLLVLCRDLT	0.65 ± 0.033
VSSFGHTFCGWI	0.618 ± 0.018
RHPPPPPPALTP	0.707 ± 0.054
IRLFAPVVFLPL	0.644 ± 0.054
VSEGFVLGGSCG	0.663 ± 0.0074
RPTPHVVLPPLP	0.524 ± 0.067
GWGGGGGAWKGV	0.736 ± 0.072
LSRSSQPLPPPH	0.7306 ± 0.0021
SPPSLPPLPPRF	0.702 ± 0.016

Sequence	protein stability index
FAPAWQTRLGCP	0.7514 ± 0.0026
PPFLSAFPPHLP	0.724 ± 0.015
GTCWGGAMGVVG	0.728 ± 0.042
NCTHKKKTLTPN	0.726 ± 0.012
QLASISPSPNPS	0.692 ± 0.021
LWGVVVGELGSC	0.723 ± 0.074
QGGSHARDRRRL	0.678 ± 0.013
TSLSVGVFSSPV	0.647 ± 0.02
NCPIQEPVSAIY	0.661 ± 0.007
LPGGVGCVGSPV	0.721 ± 0.037
HVAETRLRDHGW	0.714
ERLSEYYPLIKC	0.602 ± 0.044
MKIKIEINKNKT	0.654 ± 0.032
EPATEGDSREHW	0.708 ± 0.024
FWFFRGALVHPA	0.599 ± 0.019
GDRGGLARAGGA	0.753 ± 0.065
IEDEHLEDAPYG	0.678 ± 0.048
RDLEAVRSEDHR	0.6766 ± 0.0047
VVSRTCVRWGLV	0.655 ± 0.039
VYMWFVDSPGGS	0.682 ± 0.037
PSTSHLALSWSV	0.703 ± 0.065
RPFVRDFGCAVW	0.711 ± 0.023
KQSNGEFNIATP	0.648 ± 0.046
ESIGCINIRMRG	0.694 ± 0.013
GAMLAGRHGWGL	0.715 ± 0.04

Sequence	protein stability index
KCVQESIIKMMI	0.763 ± 0.15
KRNIKKKKTNLR	0.675 ± 0.087
SATIRDILHCRF	0.8435 ± 0.0021
PPPPGPPPLPLP	0.764 ± 0.058
FRRSLILPLPPT	0.6814 ± 0.0037
LTSPPPPPARVP	0.739 ± 0.11
VRNKGVAKDHCP	0.661 ± 0.064
PPSPPPPPVVVP	0.606 ± 0.11
EPTGEPKQKKEG	0.707 ± 0.035
RCAIMGRGGIVT	0.686 ± 0.018
LCLGVLRSDCVV	0.675 ± 0.011
FLRGLCGKMSKG	0.673 ± 0.0081
VDIKQDTTNLRL	0.718 ± 0.0086
PPPPPPLHATPL	0.6969 ± 0.0065
GGGSFVGLDFGG	0.6567 ± 0.0036
RVSRSCCATGEG	0.599 ± 0.019
GISFFPVGGPLI	0.735 ± 0.062
SHTSPSTPPPSP	0.681 ± 0.0085
SPLGAADTRQEP	0.687 ± 0.025
HVSSKMEWGNRD	0.763 ± 0.066
SPPSFFRATRSN	0.644 ± 0.096
MLRRSGEGVRLE	0.7218 ± 0.0045
KRKKQKKNQQNR	0.682 ± 0.019
ASLLSCSLLPPV	0.765 ± 0.08
PFFPSSFALLRS	0.7166 ± 0.0067

Sequence	protein stability index
PPPRPPLPPPPS	0.727 ± 0.034
FTRFWTKANDPT	0.6913 ± 0.0014
RPPDPPLHHNLP	0.687 ± 0.014
AGTGAHGLREPR	0.706 ± 0.15
TYRGKIVAPGVL	0.656 ± 0.053
FFLRLCTPPYFH	0.651 ± 0.0097
HLVLIHPTQTLN	0.634 ± 0.045
PAPPPSPRILLL	0.542 ± 0.042
WCAYRPGSTGHR	0.731 ± 0.058
LPRPYRPASTCT	0.656 ± 0.016
EKKKRRASREDS	0.6744 ± 0.0039
LAGLRLPNDLGP	0.712 ± 0.059
GSSDTYLLSLVD	0.733 ± 0.052
NYDTIYGLHLYT	0.73 ± 0.015
TIQPSVTNPTLN	0.686 ± 0.04
PRLPPPHRRPAP	0.759 ± 0.022
NGGCCLVFRIEP	0.643 ± 0.029
VGRWGGVSLGGR	0.715 ± 0.09
GCTTDQIENEIR	0.704 ± 0.033
PLPPLFLPPPPL	0.708 ± 0.021
SEILFRSSPFPI	0.721 ± 0.09
